From article PMC9860668 come the findings set out here.

The target of this assay is rabbit muscle F-actin (rabbit) (UniProt P68135). The assay is described as follows: single-molecule force spectroscopy (scanning force microscopy); Imp-PM19 or ∆D3 mutant covalently bound through a PEG crosslinker to the SFM tip; F-actin_(rabbit) with unlabeled phalloidin immobilised on poly-l-lysine mica; F-buffer pH 6.8; set point 800 pN; retraction speed 2 µm/s; 1000 curves; WLC fit.

For “Imp-PM19-His (immunodominant membrane protein of 'Candidatus Phytoplasma mali' strain PM19, His-tagged) (natural protein)”, the interaction force fell in the range of 40 to 400 pN, the maximal work of adhesion lay in the range of 4.5 to 5 aJ, the most frequently observed adhesion was 80 to 90 pN and the rupture force came out at 100 pN.
